The source of these data is the DeepSol protein solubility set.

A short description of this data set: soluble on expression in E. coli; label from the status in PepcDB or PDB records.
For the sequence “MTTKRKETRESVCYREIKKKIRNGELKPGDRLIENTLSEQLGISRTPIRKAIGMLAADGYVEYNDFRGAFVRDSIINKERYFEMTEILGLFLKQAIQKIRTKKISFNKMRVVAKLVEIERDVEPSDPAVYFEYEKWFVNDLLTYMKNNYYLKISNDFFNNIQEFGDEEVIKIAQNACVKTIANIQRFIDALEAQNYDECMAIIDQVIDAHVLVAYR”, the “soluble on expression in E. coli” value is given as “not soluble”.

For the sequence “MKKVFDVWDVETAKRFLEIIKDEPIYYPALIALHTGMRAGEILSLKWCDVNFETRVISIVKSERKNRGLKTVNLKTKTSKRAVYMNDILYKELKNLYEITKPKPDDFVCPRLPTGNLTVNYLSRKFKKLVKKHNFPLIRFHDLRHTFATLMLSLGVNTKIVAEILGHSDIKLTADTYSHVLPTMQEEAMKEFVKLWKLEHHHHHH”, the “soluble on expression in E. coli” value is reported as “soluble”.

Regarding “MGSDKIHHHHHHMKKYKNSLYVLALCGTMAACKPHIEEPSIDKGSLDVTKYVAVGNSITSGYADNALYYDGQQVSFANLLSGQFSKIGGGEFKQPLVSQTSVGVGSTGGARLKLALKTDCLGNTSLSPVPVAASGDLSIFGNIYSSAGPFNNMGVPGAKSVTTIYHGYGNPGNGLGKFNPFFTRMASNPATASILQDAMAQNPTFFTLFIGSNDVLLYALAGAANDSITPVAGGPGVGFDASMDAIVNTLVSGGAKGAIGNVPDITSLPYFTTVPYNGLVLTSQAQVDALNTAYTPFGITFHLGQNPFIIADAAAPGGRRQITSSEYVLLSVPQDSLKCNQWGSAKPIPNQYILTASEISNIRTAITNYNSKIKNLAAAHGLAFVDVNSFLMMAETGITYNGINLNTTFVSGGAFSLDGVHLTPIGNAMLANEFIKSINMTYGSTLPLIDATKYSGVKFP”, the “soluble on expression in E. coli” value is “not soluble”.

As for “GAPRSHEVPLLVTLEELYLGKRKKIKVTRKRFIEHKVRNEENIVEVEIKPGWKDGTKLTYSGEGDQESPGTSPGDLVLIIQTKTHPRFTRDDCHLIMKVTIPLVRALTGFTCPVTTLDNRNLQIPIKEIVNPKTRKIVPNEGMPIKNQPGQKGDLILEFDICFPKSLTPEQKKLIKEALD”, the “soluble on expression in E. coli” value is given as “soluble”.

Regarding “PMDDIVRIHASSGTTGKPTVVGYTRKDIEIWSELMARSFAAAGVHKGDIIHNAYGYGLFTGGLGAHYGAERLGASVIPMSGGNTKKQIMIMKDFGSTVLTCTPSYSLFMAEAAREEGVDFRQLKLHVGIFGAEPWSESMRAEIEQKLNLCAIDIYGLSEIMGPGVAIECREAKKGLHI”, the “soluble on expression in E. coli” value is “not soluble”.

“MDVIREYLMFNELSALSSSPESVRSRFSSIYGTNPDGIALNNETYFNAVKPPITAQYGYYCYKNVGTVQYVNRPTDINPNVILAQDTLTNNTNEPFTTTITITGSFTNTSTVTSSTTTGFKFTSKLSIKKVFEIGGEVSFSTTIGTSETTTETITVSKSVTVTVPAQSRRTIQLTAKIAKESADFSAPITVDGYFGANFPKRVGPGGHYFWFNPARDVLNTTSGTLRGTVTNVSSFDFQTIVQPARSLLDEQ”: the “soluble on expression in E. coli” value is recorded as “soluble”.

Take “MGSSHHHHHHSSGLVPRGSHMNNIDFDSIAKMLLIKYKDFILSKFKKAAPVENIRFQNLVHTNQFAQGVLGQSQHLCTVYDNPSWHSIVLETLDLDLIYKNVDKEFAKDGHAEGENIYTDYLVKELLRYFKQDFFKWCNKPDCNHCGQNTSENMTPLGSQGPNGEESKFNCGTVEIYKCNRCGNITRFPRYNDPIKLLETRKGRCGEWCNLFTLILKSFGLDVRYVWNREDHVWCEYFSNFLNRWVHVDSCEQSFDQPYIYSINWNKKMSYCIAFGKDGVVDVSKRYILQNELPRDQIKEEDLKFLCQFITKRLRYSLNDDEIYQLACRDEQEQIELIRGKTQETKSESVSAASK”: the “soluble on expression in E. coli” value is on record as “soluble”.

“MHHHHHHGKPIPNPLLGLDSTENLYFQGIDPFTDVAAPSPAAAAEPGPAARPRSTRGQVRLPGGEFAMGDAFGEGYPADGETPVHTVRLRPFHIDETAVTNARFAAFVKATGHVTDAERFGSSAVFHLVVAAPDADVLGSAAGAPWWINVRGAHWRRPEGARSDITGRPNHPVVHVSWNDATAYARWAGKRLPTEAEWEYAARGGLAGRRYAWGDELTPGGRWRCNIWQGRFPHVNTAEDGHLSTAPVKSYRPNGHGLWNTAGNVWEWCSDWFSPTYYAESPTVDPHGPGTGAARVLRGGSYLCHDSYCNRYRVAARSSNTPDSSSGNLGFRCANDADLTSGSAAE”: the “soluble on expression in E. coli” value is given as “soluble”.

On to “MIIPMNNKHPLPTPLVSIIIPVYNVEKYLYRCVKSILSQDYYDYEIILVDDGSTDGSGMICDELTEQHGHISVIHKPNGGQGSARNAGLNHAKGKYIWFIDSDDYISPHSLSVIMSQITQGDFDALFFPYIKSNGNILIGEAVGKYHAGVYRGQQLLLEGLVNMSMCTIVSLRSRWIDNRIFFREDIHFEDFEINPRVLKFLERAIFLDSNIIPYIYYTRLGSTMNQLDPQKRMRQTEDFLRIEKSWKEWFNLDSPEPNSYDMLMLRTGTNMLHRNLLNFVRNSNFSISTKLKLYAQYRKKGVFSWFYNGYRRDPYVGCTSVRVFWNTIGRSYILFSLFSIVEEIWKKIRK”, for which the “soluble on expression in E. coli” value is listed as “not soluble”.

In the case of “MKKYDVIVVGAGISGLLAALTLSKHGKKVLVLEKGQHLGGNCNSYIVDGYQVDTGAHAITHLIEGPLPRLMDNYFDFLPVFEDYGYYYVRTENALIKVPSNLKDFVTFDVLPRKDRLILSQTLTKALTLSSFGIDLSDQSVYDFLPKNLCKDTYDFVNTISAFLSGKSMKETSAQRILSGSSFVRDSITQEQFDAMIGKFEPKKRQSTESILSSILPYHLHASLQARVDKVAQPFTSLERLATNKVNYSQGYPRKGLKALLNAILYSFPDTVEIKSECEVTGILVESEKVYGVEADEIYLADLIIYTGFATDLPELIKDLPQAYIEELKGIVHTKSLTIWLGLKEELPEFKYTGSEIWFKDFAYWAMPISNYDPSLAPKDKQLVGFSFVIDSEQTEEHELKKAYDTIFRALPNIEKYIDMQHEQIMIPEKAAVTINGKFSDIRTPVKNLYIAGTDTDRRSMGITRAAYSIIELLKILNEDGNLHLEHHHHHH”, the “soluble on expression in E. coli” value was “not soluble”.

On to “MPPSPLDDRVVVALSRPVRPQDLNLCLDSSYLGSANPGSNSHPPVIATTVVSLKAANLTYMPSSSGSARSLNCGCSSASCCTVATYDKDNQAQTQAIAAGTTTTAIGTSTTCPANQMVNNNENTGSLSPSSGVGSPVSGTPKQLASIKIIYPNDLAKKMTKCSKSHLPSQGPVIIDCRPFMEYNKSHIQGAVHINCADKISRRRLQQGKITVLDLISCREGKDSFKRIFSKEIIVYDENTNEPSRVMPSQPLHIVLESLKREGKEPLVLKGGLSSFKQNHENLCDNSLQLQECREVGGGASAASSLLPQPIPTTPDIENAELTPILPFLFLGNEQDAQDLDTMQRLNIGYVINVTTHLPLYHYEKGLFNYKRLPATDSNKQNLRQYFEEAFEFIEEAHQCGKGLLIHCQAGVSRSATIVIAYLMKHTRMTMTDAYKFVKGKRPIISPNLNFMGQLLEFEEDLNNGVTPRILTPKLMGVETVV”, for which the “soluble on expression in E. coli” value is listed as “soluble”.

Consider “MPVTRPAKINTYTRIIDASLALFNEEGERNISTNHIAAHLGISPGNLYYHFRNKDEIIVQLFKRYSEALLAYLNEAVLPSDVEDSINYMAGIYDVMWEYRFLFSDVNTLLARSAELLGEHNTFTQAKVSPLLVNLLTQLNGLNIIQADQTAMNDLAVNMWMVTKYWFDFDSSLRGRTKLTEDSKARGIRRTLSLLRPYLLPEHRKKYDRKIGNGNP”, for which the “soluble on expression in E. coli” value is recorded as “soluble”.

Turning to “MKICLQAGAVKQIENYFSISTDGVEIRIWFLTDSVVRIRAGFDGDFVEESYSLVTTAWEDRMDMFMKHYRKRIQTAEAQLTDGLEKAVIQGKVLRVEVEKNPFRICVYDAENTQIHADIVDLAYMEDSNNRRIHTSEITEDDCFY”, the “soluble on expression in E. coli” value is given as “not soluble”.

Consider “KVGILQFVTHDALDQIEKGIEDGLKEAGYKGDKVQITLLNAEGDQSKIQTMSKQLVNDKNDVVIGIATPAAQGLAAATKDIPVIMGAISDPVGAKLVKNLKHPEGNVTGTSNQVPIKQTVELVKSLTPNAKTIGILYASSEDNSQSQVESFKKYAEQDGLNVIEYAVPSTNEINTTMSVMTGKVDAIWTPQDNTIASSFSTVISLANQAKIPVYTTVDTMVKEGGLASVAQNQYELGKATARSAIKVLKGKKVKDIPVDVIDDGTPTLNLKVARDLNITIPDDVLKQSDIAVKADK”, for which the “soluble on expression in E. coli” value is recorded as “not soluble”.

With “MKFPGQRKSKHYFPVKTRDPLLEQLTQQPQPFATYISGIDQTLVDIEAKVEDELLSRYGLPKGNSTLINDEQAHRLYTELKIHGLISDEFAGGTIGNTVHNYSILADDRSVLFGVMSQNIEVGSYAYRYLCNTSSKVDLNYLQPVDGPIGRCFTLISDCGERTFAISKGAMDKLTPEFIDKDVVQGSSALVLTAYLMRASGGDRITDAAMCAIEYAKAADVPVVLTLGTRFLIEEDPLWWQNFIKEHVTILAMNEDEGEALTGSRDPLLASEKALEWCDMVLTTAGPIGLYTAGYTEDSEKRETTHTLLPGAIPEFNRYEFSRPKLKSDCETPIKVYAHISPYMGGPEKIGNTNGAGDGALSALLHDLAANTFHKTNVPGSSKHKRDGLCYSSFSQICKYANRVAYEVLAQHSPRLSRGLPEREDSLEESYWER”, the “soluble on expression in E. coli” value is “soluble”.

With “DMKPNSTKIGVAEATDAALIQALQQRQVFTKTTQPTLSWEQYLELNLNSKSKRLALCNKLHLSYFNHKQLFRKLNLLQLTFDQVCQLLK”, the “soluble on expression in E. coli” value is listed as “not soluble”.

“MSDVSLKLSAKDIYEKDFEKTMARGYRREEVDAFLDDIIADYQKMADMNNEVVKLSEENHKLKKELEELRLRVATSRPQDNKSFSSNNTTTNTSSNNVDILKRISNLEKAVFGK”: the “soluble on expression in E. coli” value was “not soluble”.

With “MTVTSSAAIDIGGGGGGRRSDRLDSDRTSEDMSFIASPANESFQIGASFVDVQNESSGSIDTATATLHELNYTFGMPPVTEESENMPQNYETVVELLPGEERAPINKLTEFPIEGGSLFVTNFRIVVILKDKEVEEALRFLVFPLQDIEQIDLAIPAFIHLSLKIGRMFTICFKTAEDAALVHKILYTAFQRLNRPISSIYTSRPQDWTSKNTDNPMQSLNAFAWKFSEAVDELDRDGKLPSWLLRADSVAQEITHIDFNRLGMSEHFQISSVNENFEVCPTYPEKIIVPKGITDDDIRKGAPYRSIGRFPAVIWRCRKTRAVLMRSSQPQVGILSWRNPTDEKIIEEAVKASRIEGEEKKQFIIMDARGYTSAFANRARSGGFENTEYYQQAKLEFLGLPNIHAVRGSFNNVRTMLHNLGPNEQLLTSLQTTGWLLNLSNLLVNAANCADHLSKGHSVLVHCSDGWDRTTQVTTLAKIMLDEYYRTVKGFEELIRRDWIAFGHKLYDRQLVAFGNWGTSDERSPVFLQFLEAVRHLQREQPTLFQFTHAYLIKLAKHAYSGLFGSFLFNSHKERREAMEKCKGTLVDIWRFIGPHNEEYVNQSFDEHYTGAVKPVNVSVINLRVWHEVFADEEEHYTQIFSPKEERPLSGCTTPMNTSTSTNLVKSKSSESINSLNVDGSAKESSQQHPTCSTTPSDNTNSLPMSTSFIQQSLYQPKVRGVAAIDRDGVIRFEDDEQAMLRKKNKLRAEEIRRKDEKIEELRRRAVLDTNKVSPGQRQSYSESDVETTGTLERVMSDVSMVDPVNELPHFKPNTTWEGESGHCAYCKKEFNKLSVYVEDRQHHCRNCGRVVCEDCSKNRFSVIEEGKSVQKRACDSCYDSMHETDLKLSSSSTTTTSSSTKIENDSNVPGLDNNSDNVSENVSENAIPDIIVEEKEAEDPIKEAESPSKETKCPKTLRNFISFSPKSSMRKNKVHSRDPLKSIDEGSSSQQAESDDVLDVNEQPL”, the “soluble on expression in E. coli” value was “not soluble”.
